The data set has as its system MS2 coat protein. As to the kind of experiment: apparent KD of MS2 coat protein; designed switch direction (-1 OFF switch, 1 ON switch): -1; higher = weaker reporter binding. A digest of the protocol: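 The buffer was Tris-HCl pH 7.5 with KCl, MgCl2, BSA, DTT, tRNA and Tween-20. In it, SNAP-549-labelled MS2 coat protein was titrated in doubling steps from 0.7 or 1.5 nM to 3 µM over chip-bound RNA switches transcribed by stalled E. coli RNA polymerase on Illumina chips. Apparent KD is the per-design median over clusters of curve fits to normalised fluorescence.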

Setting [1] is: Eterna round: R95, input ligand: microRNA oligo, concentration not stated.
[2] abbreviates: input ligand: microRNA oligo, concentration not stated.
[3] abbreviates: Eterna round: R95, input ligand: FMN 200 uM.
[4] abbreviates: Eterna round: R95, input ligand: none.

Consider “UUCCUACAUGAGGAUCACCCAUGUCAGGAUAUAUAAAACGCUCUGGUAAUAGAGCAAGAUAGAAGGGAUUGGGA [Beeratve] (Eterna round: R97, puzzle: Exclusion 1)”, for which the “apparent KD of MS2 coat protein” value is, setting by setting: (input ligand: FMN 200 uM) 14.6 nM; (input ligand: none) 13.3 nM. As to “UUCCUACAUGAGGAUCACCCAUGUCAGGAUAUCUCCUCGUCGCCAAUGGGCGACGAAUAGAGAAGGGACAGGAA [Rerizaatra] (puzzle: Exclusion 1)”, the “apparent KD of MS2 coat protein” value under setting [1] is 13.1 nM. Take “UUCCUCAUAACAUGAGGAUCACCCAUGUAUUAUUUGAUAACUGAGGAUAUACUUUUAAUGUUUAUGUAGAAGGCAGAUACAGUU [JR_ExcNG3_Sub016] (Eterna round: R96, puzzle: Exclusion NG 3)”: the “apparent KD of MS2 coat protein” value under setting [2] turned out to be 89.6 nM. As for “UUCCUCGUUGUGAGGAUAUCGUCCGGGUUUUGUUACGAGAAGGCACAUGAGGAUCACCCAUGUUACUUGAUGUU [JR_BMOE4_Sub072] (puzzle: Brourd's mod of Exclusion 4)”, the “apparent KD of MS2 coat protein” value under setting [1] turned out to be 20 nM. On the same count and under the same terms, in the case of “UUCCUCGUUGUGAGGAUAUCGUCCGUGUUUUGUUACGAGAAGGCACAUGAGGAUCACCCAUGUUUUUUGUUUUU [JR_BMOE4_Sub075] (puzzle: Brourd's mod of Exclusion 4)” it was 40 nM. For “UUCCUCGUUGUGAGGAUAUCGUCCUCUUUUUGUUACGAGAAGGCACAUGAGGAUCACCCAUGUUUCUUGAUGUU [JR_BMOE4_Sub070] (puzzle: Brourd's mod of Exclusion 4)”, the “apparent KD of MS2 coat protein” value under setting [1] worked out at 16.7 nM. The same measure, in the same setting: the result for “UUCCUGUCAGGAUAUGACUAGAUGCACGAAAGUGUGUUUACUUAGAAGGGACAUGAGGAUCACCCAUGUAGUCC [Bring Us a Shrubbery-17] (puzzle: Exclusion 4)” reads 31.3 nM; that for “UUCCUGUCAGGAUAUGACUAGAUGCACGAAAGUGUGUUUAGUUAGAAGGGACAUGAGGAUCACCCAUGUAGUCC [Bring Us a Shrubbery-18] (puzzle: Exclusion 4)”, 20.9 nM. As for “UUCGGCGGAGGAUAUACAGUUUUUUGUUGAAUCGGCGGAAAACAUGAGGAUCACCCAUGUAGAAGGUUGUUGAA [-19.8, -17.1 kcal, A 28%] (Eterna round: R97, puzzle: Exclusion 2)”, the “apparent KD of MS2 coat protein” value runs as follows: (input ligand: FMN 200 uM) 64.2 nM; (input ligand: none) 65.6 nM.

Regarding “UUCGGGUCAGGAUAUUGUUAGUUUAGUUGUUUGUAUUAGUUCGAGAAGGGACAUGAGGAUCACCCAUGUGGUAA [Ex4 #81] (Eterna round: R97, puzzle: Exclusion 4)”, the “apparent KD of MS2 coat protein” value by setting is: (input ligand: FMN 200 uM) 71.5 nM; (input ligand: none) 160 nM. Take “UUCGUGCAGCUUUGCUGUACGCGUACAUGAGGAUCACCCAUGUAGGAUAUGGUAGGCAAAGCUUACUAGAAGGAUAUAGUGAUC [Mat - Exclusion NG 3 - Mod of JL - D78] (Eterna round: R96, puzzle: Exclusion NG 3)”: the “apparent KD of MS2 coat protein” value turned out to be 66.7 nM (input ligand: FMN 200 uM), 41.7 nM under setting [2] and 64.5 nM (input ligand: none). For the sequence “UUCGUGUGAGGAUAUCGAUUAUGGAAGUCUAGAUCCAUACGCGAGAAGGCACAUGAGGAUCACCCAUGUAAUGG [jl-ex4-4.34 ViennaUCT mod] (Eterna round: R97, puzzle: Exclusion 4)”, the “apparent KD of MS2 coat protein” value reads like this: (input ligand: FMN 200 uM) 38 nM; (input ligand: none) 227 nM. The corresponding values for “UUCUGCACGCUGCGGUCCUACAUGAGGAUCACCCAUGUGGUCUGGUGGCGUGGGUCACCGGACUUGGCUCGUCUUGC [salish99_S_TOV1_R5_053] (Eterna round: R97, puzzle: Sensor, turn-off variant 1)” are 20.1 nM and 21.1 nM. The corresponding values for “UUCUGGACAGGAUAUGUACUUGAGCACUUGAGGAUCACCCAAGUCGUCAAGUACUCAGGCACAGAAGGGUUAAUUU [jl-ex5.4.67 ViennaUCT mod] (Eterna round: R97, puzzle: Exclusion 5)” are 30.7 nM and 15.3 nM. For the sequence “UUCUUACAUGAGGAUCACCCAUGUCAGGAUAUCUCCGCACUGCGCUUGCGCAGUGCAUAGAGAAGGGACAGGCU [JL ViennaUCT Aner mod 4] (puzzle: Exclusion 1)”, under setting [1], the “apparent KD of MS2 coat protein” value worked out at 45.7 nM. On the same count and under the same terms, the result for “UUCUUACAUGAGGAUCACCCAUGUCAGGAUAUCUCCUCACUGCGCUUGCGCAGUGAAUAGAGAAGGGACAGGCU [JL ViennaUCT Aner mod 2] (puzzle: Exclusion 1)” reads 37.3 nM; that for “UUCUUACGAGGAUAUCGAUUGUGGUACAUGAGGAUCACCCAUGUAUGUGAUAUUGUAUUUCGAGAAGGCGUUCAGU [JR_E5_Sub059] (puzzle: Exclusion 5)”, 25.2 nM. Turning to “UUCUUGGCAGGAUAUGCUUUUUUAGACAUGAGGAUCACCCAUGUGAUUAUUUUUGGUUUUGCAGAAGGGCCUUAAU [JR_E5_Sub042] (puzzle: Exclusion 5)”, the “apparent KD of MS2 coat protein” value under setting [1] stood at 59.9 nM. Consider “UUCUUUACACGAGGAUAUCAUACAUGAGGAUCACCCAUGUGGCUGUGUCUGUUUUUAUGUAUUAUUGAGAAGGCGUUUUUCUUU [JR_ExcNG2_Sub075] (Eterna round: R96, puzzle: Exclusion NG 2)”, for which the “apparent KD of MS2 coat protein” value (input ligand: FMN 200 uM) turned out to be 105 nM, the “apparent KD of MS2 coat protein” value under setting [2] came to 28.3 nM and the “apparent KD of MS2 coat protein” value (input ligand: none) was found to be 33 nM. With “UUCUUUACACGAGGAUAUCAUACAUGAGGAUCACCCAUGUUACUUUGUCUGUUAUUAUGUAUUAUUGAGAAGGCGUUUUUCUUU [JR_ExcNG2_Sub077] (Eterna round: R96, puzzle: Exclusion NG 2)”, the “apparent KD of MS2 coat protein” value under setting [2] is 15.8 nM. “UUGAAGUCAUCAGGAUAUAGUAUAAAAGACAUAUAUUUUUUCAAACAUGAGGAUCACCCAUGUCGCUAGAAGGGAUUAUAGAUU [JR_ExcNG2_Sub081] (Eterna round: R96, puzzle: Exclusion NG 2)”: the “apparent KD of MS2 coat protein” value under setting [2] was 34.7 nM. Turning to “UUGAAGUCGUCAGGAUAUAGUUUUAAUGUCAUGCGUAUGUUCUUACAUGAGGAUCACCCAUGUCGCUAGAAGGGACUAUAGAUU [JR_ExcNG2_Sub009] (Eterna round: R96, puzzle: Exclusion NG 2)”, the “apparent KD of MS2 coat protein” value reads like this: (input ligand: FMN 200 uM) 53.3 nM; under setting [2], 36.4 nM; (input ligand: none) 51.6 nM. On to “UUGACGGCAGGAUAUACAUGAGGAUCACCCAUGUAAAUUUUUCGUUUAACUUGAAUGUGUAGAAGGGCCAUGUU [Ex3 #72] (Eterna round: R97, puzzle: Exclusion 3)”, for which the “apparent KD of MS2 coat protein” value by setting is: (input ligand: FMN 200 uM) 18.2 nM; (input ligand: none) 19 nM.

For “UUGAGCAGACGGAGAUCCAACAUGAGGAUCACCCAUGUCUCAUAAGCUUUUUGUUCAUCUUAUUGUACCUUGGUGCA [Mat - Sensor v3 - turn-off var 1 - JL Mod - D24] (puzzle: Sensor v3, turn-off variant 1)”, the “apparent KD of MS2 coat protein” value is, setting by setting: under setting [3], 71.3 nM; under setting [1], 17 nM; under setting [4], 64.1 nM. For “UUGAUACAUACCUCCAUAAACAUGAGGAUCACCCAUGUAAGUGAGGAUAUAGAUUGUUUAGUAUACUAGAAGGCACUUAGAUAU [JR_ExcNG3_Sub045] (Eterna round: R96, puzzle: Exclusion NG 3)”, the “apparent KD of MS2 coat protein” value under setting [2] came out at 9.11 nM. Turning to “UUGAUUAGAAAGGAUAUCGGAUACUUGAGAGUCCGAGAAGGUUUUACAUGAGGAUCACCCAUGUGGCAUCCUCG [Eternabot (L1) Solution 99] (Eterna round: R97, puzzle: Exclusion 6)”, the “apparent KD of MS2 coat protein” value is 476 nM (input ligand: FMN 200 uM) and 805 nM (input ligand: none). For “UUGAUUCAUUCCUCCAUAAACAUGAGGAUCACCCAUGUAAGUGAGGAUAUAGUUUGUUUAGUAUACUAGAAGGCACUUAGAUAU [JR_ExcNG3_Sub046] (Eterna round: R96, puzzle: Exclusion NG 3)”, the “apparent KD of MS2 coat protein” value (input ligand: FMN 200 uM) came out at 12.7 nM, the “apparent KD of MS2 coat protein” value under setting [2] was determined as 9.61 nM and the “apparent KD of MS2 coat protein” value (input ligand: none) turned out to be 12.6 nM. As for “UUGCCGCGAGGAUAUAUAGACGGGUUCAAUACGUGUCUCGGACUUGAGGAUCACCCAAGUAGAAGGCUUUUUAU [LRO-Excl2-12-mod _r4_621 by salish99] (Eterna round: R97, puzzle: Exclusion 2)”, the “apparent KD of MS2 coat protein” value by setting is: (input ligand: FMN 200 uM) 15.5 nM; (input ligand: none) 14.7 nM. For the sequence “UUGCCGCGAGGAUAUGCAGACGGGUUCAAUACGUGUCUCGGACUUGAGGAUCACCCAAGUAGAAGGCUUUUUAU [LRO-Excl2-13-mod _r4_621 by salish99] (Eterna round: R97, puzzle: Exclusion 2)”, the “apparent KD of MS2 coat protein” value is 16.2 nM (input ligand: FMN 200 uM) and 14.8 nM (input ligand: none). Regarding “UUGCGGAGAGGAUAUACAUAGGCGGAUUGGUAGACUCAAAUACAUGAGGAUCACCCAUGUAGAAGGCUUGAUCA [Eternabot (L2) Solution 22] (Eterna round: R97, puzzle: Exclusion 2)”, the “apparent KD of MS2 coat protein” value runs as follows: (input ligand: FMN 200 uM) 144 nM; (input ligand: none) 50.4 nM. As to “UUGCUACCUUGGUGCUCUACAAGCUUUUUGCUCGUUUUAACAUGAGGAUCACCCAUGUCUAGUGGAUCUGAUCGGGU [JL ViennaUCT Isreen mod 2] (puzzle: Sensor v3, turn-off variant 2)”, the “apparent KD of MS2 coat protein” value under setting [3] is 91.3 nM, the “apparent KD of MS2 coat protein” value under setting [1] stood at 212 nM and the “apparent KD of MS2 coat protein” value under setting [4] turned out to be 97.9 nM. With “UUGCUCCCUUAGUACUCUACAAGCUUUUUGUUCGUUUUAACAUGAGGAUCACCCAUGUCUAGUGGAUCUGAUCGGGU [JL ViennaUCT Isreen mod 4] (puzzle: Sensor v3, turn-off variant 2)”, the “apparent KD of MS2 coat protein” value runs as follows: under setting [3], 136 nM; under setting [1], 226 nM; under setting [4], 165 nM. The corresponding values for “UUGCUUUCUUAGUACUCUACAAGUUUUUUGUUCGUUUUAACAUGAGGAUCACCCAUGUCUAGUGGAUCUGAUCGGGU [JL ViennaUCT Isreen mod 6] (puzzle: Sensor v3, turn-off variant 2)” are 146 nM, 263 nM and 173 nM.
